Data as given in PMC2728405.

Molecular target: microtubules preformed from purified tubulin (taxol-stabilized) (UniProt Q6B856)
Test: co-sedimentation

stoichiometry N (α-β tubulin heterodimers per Dp260): 1.4
Substance: purified recombinant Flag-tagged Dp260
